Here are results for one molecule from PMC11176775, “Impact of DNA ligase 1 and IIIα interactions with APE1 and polβ on the efficiency of base excision repair pathway at the downstream steps” (The Journal of Biological Chemistry, 2024).

The target in the test is DNA polymerase β (1–335 amino acids), as used in SEC and in the repair assays (UniProt P06746 1-335). In words: cell-based or functional assay.

B1: LIG1▵N-terminal (262–919 amino acids) (domain or fragment)
chain: DPSGYNPAKNNYHPVEDACWKPGQKVPYLAVARTFEKIEEVSARLRMVETLSNLLRSVVALSPPDLLPVLYLSLNHLGPPQQGLELGVGDGVLLKAVAQATGRQLESVRAEAAEKGDVGLVAENSRSTQRLMLPPPPLTASGVFSKFRDIARLTGSASTAKKIDIIKGLFVACRHSEARFIARSLSGRLRLGLAEQSVLAALSQAVSLTPPGQEFPPAMVDAGKGKTAEARKTWLEEQGMILKQTFCEVPDLDRIIPVLLEHGLERLPEHCKLSPGIPLKPMLAHPTRGISEVLKRFEEAAFTCEYKYDGQRAQIHALEGGEVKIFSRNQEDNTGKYPDIISRIPKIKLPSVTSFILDTEAVAWDREKKQIQPFQVLTTRKRKEVDASEIQVQVCLYAFDLIYLNGESLVREPLSRRRQLLRENFVETEGEFVFATSLDTKDIEQIAEFLEQSVKDSCEGLMVKTLDVDATYEIAKRSHNWLKLKKDYLDGVGDTLDLVVIGAYLGRGKRAGRYGGFLLASYDEDSEELQAICKLGTGFSDEELEEHHQSLKALVLPSPRPYVRIDGAVIPDHWLDPSAVWEVKCADLSLSPIYPAARGLVDSDKGISLRFPRFIRVREDKQPEQATTSAQVACLYRKQSQIQNQQGEDSGSDPEDTY
In the case of B1, the “amount of ligation products after polβ dGTP:C insertion in the coupled assay, absence against presence of the N-terminal region of LIG1, earlier time points (10-60 s)” value is approximately 20 fold.
